B1: NP_116010.1 (parent)
chain: HSLRAVSTDPPHHDHHDEFCLMP

Columns and labels:
[1] = variants of: B1; experiment: protein stability index of a GFP-peptide fusion (GPS, HEK-293T) (PSI 1-6); higher = more stable; settings: c terminus: native
[2] = variants of: B1; experiment: as above; settings: c terminus: native; remark: listed apart in the source

Variant	protein stability index [1]	protein stability index [2]
A5K	2.94	2.07
A5I	2.56	2.96
A5T	2.38	2.67
A5F	2.79	3.93
A5D	3.02	1.7
A5Q	2.5	2
A5S	2.87	2.34
A5C	2.6	2.2
A5H	2.54	1.69
A5W	2.96	4.16
A5L	2.4	3.4
A5N	2.54	2.18
A5M	1.9	2.19
A5V	2.37	3.93
A5G	3.03	2.44
A5E	2.51	2.01
R4A	3.09	1.82
R4T	3.08	2.84
R4V	2.23	1.96
R4K	2.58	1.8
R4F	2.11	2.22
R4E	3.58	2.41
R4C	2.69	3.21
R4Q	3.06	1.83

Variant	protein stability index [1]	protein stability index [2]
R4L	2.73	3.03
R4I	2.92	1.55
R4W	2.38	2.9
R4G	3.32	2.64
R4M	2.45	2
S7L	2.08	
S7G	2.58	2.83
S7N	2.27	2.64
S7I	2.4	2.93
S7V	2.39	2.7
S7Y	2.31	2.02
S7C	2.48	2.82
S7H	2.53	
S7F	2.23	
S7M	2.74	2.65
S7W	2.31	3.98
S7D	2.81	2.26
S7T	2.33	3.06
S7Q	2.58	3.14
S7R	2.36	1.88
D14Q	2.45	2.61
D14V	2.27	
D14W	1.97	1.87
D14S	2.23	2.34

Variant	protein stability index [1]	protein stability index [2]
D14K	2.25	2.14
D14A	2.52	2.35
D14C	2.5	1.99
D14M	2.29	3.39
D14N	2.11	2.13
D14F	1.99	1.83
D14Y	2.29	
D14L	2.02	2.33
D14I	1.8	3.58
D14R	2	2.48
D14E	2.5	
D14G	2.23	
H1G	3.41	2.65
H1T	3.55	2.54
H1L	3.11	1.68
H1W	2.18	1.93
H1K	3.29	2.43
H1N	3.37	1.64
H1Q	3.06	1.9
H1I	2.75	1.82
H1P	3.39	2.21
H1D	3.42	3.31
H1S	3.04	2.26
H1M	2.8	1.72

Variant	protein stability index [1]	protein stability index [2]
H1E	3.5	2.41
H1A	3.26	1.49
H1R	2.68	2.35
H1F	2.24	
H1C	2.68	2.48
H1Y	2.63	1.19
V6S	2.62	3.49
V6D	2.64	2.57
V6I	2.27	2.17
V6R	2.19	2.37
V6Y	2.41	3.34
V6F	1.92	2.8
V6M	2.51	2.68
V6K	2.72	2.02
V6G	2.9	2.49
V6N	2.98	2.76
V6C	2.52	2.93
V6L	2.35	3.23
V6A	3	2.57
T8V	2.26	2.82
T8S	2.13	2.85
T8M	2.48	2.27
T8Y	2.54	2.14
T8I	2.59	2.13

Variant	protein stability index [1]	protein stability index [2]
T8R	2.33	3.01
T8H	2.48	1.79
T8F	2.38	1.87
T8D	2.53	2.23
T8L	2.36	2.95
T8N	2.36	2.4
T8E	2.45	2.89
T8W	1.99	2.87
T8G	2.68	2.59
T8C	2.93	2.64
T8Q	2.46	2.69
T8A	2.75	4.04
T8K	2.28	2.99
L3K	2.76	2.04
L3H	2.57	2.9
L3C	2.38	1.7
L3W	2.23	2.47
L3M	2.43	3.08
L3N	3.45	2.59
L3T	2.22	2.75
L3R	2.82	2.21
L3Q	2.78	2.52
L3Y	2.38	
L3E	2.28	2.11

Variant	protein stability index [1]	protein stability index [2]
L3I	2.39	3.18
L3V	2.75	1.7
L3S	3.2	2.59
L3G	3.07	2.46
L3A	2.35	2.02
L3D	2.5	2.14
S2I	2.49	2.83
S2V	2.21	2.88
S2L	2.53	2.93
S2A	2.31	3.34
S2M	2.41	2.38
S2C	2.64	2.73
S2F	2.24	3.2
S2R	2.73	1.58
S2N	3.12	2.72
S2H	2.69	1.95
S2D	3.12	2.45
S2K	2.58	1.89
S2Y	2.5	3.18
S2E	2.65	2.29
S2W	1.9	1.23
S2T	2.04	2.11
S2Q	2.6	2.68
H13Y	2.5	2.08

Variant	protein stability index [1]	protein stability index [2]
H13Q	2.59	1.89
H13G	2.67	1.73
H13A	2.31	2.86
H13T	2.46	2.38
H13V	2.33	1.99
H13K	2.33	2.31
H13F	2.24	3.29
H13R	2.21	
H13L	2.73	2.11
H13I	2.39	2.16
H13N	2.39	1.91
H13W	2.4	1.65
H13E	3	2.37
H13C	2.58	2.89
H13S	2.5	2.59
H13M	2.33	3.31
H13D	3.07	2.18
H15L	2.33	1.7
H15G	2.88	2.48
H15E	3	1.67
H15K	2.6	2.5
H15D	3.15	2.08
H15A	2.57	1.93
H15C	2.52	4.24

Variant	protein stability index [1]	protein stability index [2]
H15F	2.32	2.69
P10W	2.37	2.88
P10V	2.29	2.25
P10L	2.43	3.21
P10S	2.03	2.05
P10C	2.29	2.09
P10D	2.88	
P10Q	2.56	2.28
P10Y	2.4	2.47
P10I	2.48	3.15
P10F	2.67	
P10G	2.46	1.84
P10R	2.26	3.17
P10M	2.47	2.82
P10T	2.56	2.11
P10A	2.38	2.39
P10E	2.77	2.47
P10K	2.58	1.43
P10N	2.27	1.91
P10H	2.43	2.57
H12V	2.73	2.67
H12W	2.27	3.29
H12R	2.32	2.76
H12G	2.68	2.16

Variant	protein stability index [1]	protein stability index [2]
H12S	2.8	2.33
H12Y	2.46	2.19
H12N	2.58	2.79
H12F	2.62	2.49
H12D	2.73	2.2
H12E	2.87	2.75
H12L	2.79	2.83
H12K	2.87	3.08
H12A	2.44	1.65
H12Q	2.69	2.12
H12I	2.53	1.98
H12C	2.37	2.4
H12M	2.52	2.12
D9C	2.45	3.11
D9F	2.44	3.37
D9G	2.42	3.24
D9V	2.11	1.94
D9R	2.2	
D9E	2.48	1.95
D9Y	2.37	2.37
D9K	2.44	1.84
D9N	2.38	1.93
D9S	2.44	3.56
D9W	2.52	1.81

Variant	protein stability index [1]	protein stability index [2]
D9M	2.23	2.04
P11R	2.42	2.66
P11L	2.55	4.46
P11M	2.71	2.95
P11W	2.16	2.29
P11G	2.59	2.46
P11I	2.58	2.28
P11Y	2.26	3.15
P11T	2.24	1.9
P11V	2.21	1.74
P11N	2.5	2.41
P11A	2.67	2.67
P11D	2.73	2.3
P11S	2.34	2.58
P11Q	2.56	1.99
P11F	2.44	1.5
P11K	2.65	2.58
P11C	2.44	1.57
P11E	2.72	2.81

Reference: the supplement of paper PMC10567573
